Measurements published in patent US20150239961A1.

Key:
[1] = molecular target: Env on the surface of HIV-1 AE.CM235-infected cells (HIV-1 AE.CM235); test: cell-based or functional assay
[2] = molecular target: HIV-1 B.JRFL gp120 Env (HIV-1 B.JRFL); test: blocking assay on JRFL gp120, competitor b12
[3] = molecular target: HIV-1 AE.A244 gp120 envelope glycoprotein (HIV-1 AE.A244); test: blocking assay on A244 gp120, competitor sCD4
[4] = molecular target: recombinant AE.A244 Δ11 gp120 (HIV-1 AE.A244); test: SPR (BIAcore 3000), mAb captured by anti-human Ig Fc, gp120 in flow
[5] = molecular target: recombinant AE.A244 Δ11 gp120 (HIV-1 AE.A244); test: SPR synergy assay (BIAcore 4000), CH58 immobilized on CM5 chip, mAb-gp120 complex injected
[6] = molecular target: Env on the surface of HIV-1 AE.92TH023-infected primary CD4+ T cells (HIV-1 AE.92TH023); test: flow cytometry, Alexa Fluor 488-CH58 with CH90 F(ab), HIV-1-infected CD4+ T cells (FIG. 14B-E)
[7] = molecular target: Env on the surface of HIV-1 AE.CM235-infected cells (HIV-1 AE.CM235); test: as above
[8] = molecular target: Env on the surface of HIV-1 AE.CM235-infected cells (HIV-1 AE.CM235); test: flow cytometry, Alexa Fluor 488-CH58 with unconjugated mAb, 10 µg/ml each, AE.CM235-infected CD4+ T cells
[9] = molecular target: Env on the surface of HIV-1 AE.92TH023-infected primary CD4+ T cells (HIV-1 AE.92TH023); test: flow cytometry, Alexa Fluor 488-CH58 with unconjugated mAb, 10 µg/ml each, AE.92TH023-infected CD4+ T cells
[10] = molecular target: HIV-1 B.JRFL gp120 Env (HIV-1 B.JRFL); test: blocking assay on JRFL gp120, competitor sCD4

For A32 (antibody), the ADCC EC (3 hr Luciferase ADCC) [1] was 0.003 µg/mL, the maximum % GzB activity (ADCC-CM235 assay) [1] was 16% and the % blocking of b12 binding [2] was 23%. For the same substance, the % blocking of sCD4 binding [3] was 29%, the Kd [4] was 0.7 nM and the koff [4] was 0.00015 s⁻¹. For the same substance, the kon [4] was 223000 M⁻¹ s⁻¹.
CH58 (antibody) was tested, and the % Max Killing, mAb alone (Luciferase ADCC) [1] was 18.8%, the ADCC EC (3 hr Luciferase ADCC) [1] was 9.68 µg/mL and the EC, mAb alone (Luciferase ADCC) [1] was 9.13 µg/mL. It also gave a PC75, mAb alone (Luciferase ADCC) [1] of 31.4 µg/mL, a Kd [4] of 1 nM and a koff [4] of 0.00023 s⁻¹. For the same substance, the kon [4] was 226000 M⁻¹ s⁻¹, the % increase in binding with gp120 pre-incubated with CH54, against gp120 with murine 16H3 mAb [5] was 14% and the % increase in binding with gp120 pre-incubated with CH57, against gp120 with murine 16H3 mAb [5] was 59%. For the same substance, the % increase in binding with gp120 pre-incubated with CH90, against gp120 with murine 16H3 mAb [5] was 12%, the % enhancement of CH58 binding in the presence of CH90 F(ab) [6] was < 10% and the % enhancement of CH58 binding in the presence of CH90 F(ab) [7] was < 10%. For the same substance, the % increase in frequency of infected cells recognized by CH58 and in MFI in the presence of A32 [8] was < 45%, the % increase of CH58 binding in the presence of CH54 [8] was > 20% and the % increase of CH58 binding in the presence of CH57 [8] was > 25%. The % increase of CH58 binding in the presence of CH90 [8] was > 35%, the % increase in the frequency of cells recognized by CH58 in the presence of A32, against CH58 alone [9] was > 40% and the % increase in the frequency of cells recognized by CH58 in the presence of CH57, against CH58 alone [9] was > 40%. The % increase in the frequency of cells recognized by CH58 in the presence of CH90, against CH58 alone [9] was > 40%.
VRC-CH31 (antibody) was tested, and the % blocking of b12 binding [2] was 70%, the % blocking of sCD4 binding [3] was 97% and the % blocking of sCD4 binding [10] was 67%.
Work on A32 Fab yielded an inhibition of the ADCC activity mediated by 19/20 non-V3 mAbs (ADCC-CM235 assay) [1] of 73 to 100%.
